Values belong to the substance of their own block, whether it stands above or below them.
What was measured:
[1] = target: ancestral human TRPV6 (R157, V378, T681) (human); assay: cryo-EM structure
[2] = target: derived human TRPV6 (C157, M378, M681) (human); assay: cryo-EM structure

stoichiometry N [1]: 4 subunits
Substance: ancestral human TRPV6 (R157, V378, T681) (natural protein)

stoichiometry N [2]: 4
Substance: derived human TRPV6 (C157, M378, M681) (natural protein)

stoichiometry N (CaM per TRPV6 tetramer) [1]: 1
Substance: endogenous calmodulin (CaM) (from UniProt P0DP23 1-149) (natural protein)

Reference: article PMC11698656
